Values of other authors in publication PMC6387150.

Target: IL-18 (Homo sapiens) (UniProt Q14116)
Sequence (Q14116 37-193): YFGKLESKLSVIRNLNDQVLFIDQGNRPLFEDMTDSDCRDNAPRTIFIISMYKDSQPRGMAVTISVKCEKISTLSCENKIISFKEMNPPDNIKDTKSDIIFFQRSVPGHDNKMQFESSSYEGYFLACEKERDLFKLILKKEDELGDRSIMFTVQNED

Sequence of IL-18BP (O95998 31-194): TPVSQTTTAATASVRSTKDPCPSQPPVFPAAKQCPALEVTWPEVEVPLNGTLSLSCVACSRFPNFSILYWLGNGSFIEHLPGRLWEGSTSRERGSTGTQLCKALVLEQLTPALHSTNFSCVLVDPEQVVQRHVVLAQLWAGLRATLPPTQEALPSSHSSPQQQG

IL-18BP (from UniProt O95998)
Kd: 0.4 nM
